According to paper PMC5793714, “Functional implications of corticosteroid-binding globulin N-glycosylation” (Journal of Molecular Endocrinology, 2017):

How the values were obtained:
Western blot of medium = conditions: glycan lost, control: untreated CHO-S cells
[1] = Western blot of culture medium; conditions: glycan lost; control: rat CBG
[2] = loss of cortisol-binding capacity after protease incubation; conditions: glycan lost; control: un-mutated CBG

| Protein | expression_or_secretion, other: % of untreated (Western blot of medium; same construct) | other: protease susceptibility [2] | other results |
| --- | --- | --- | --- |
| rat CBG: tunicamycin (protein) parent chain: MSLALYTCLLWLCTSGLWTAQASTNESSNSHRGLAPTNVDFAFNLYQRLVALNPDKNTLISPVSISMALAMVSLGSAQTQSLQSLGFNLTETSEAEIHQSFQYLNYLLKQSDTGLEMNMGNAMFLLQKLKLKDSFLADVKQYYESEALAIDFEDWTKASQQINQHVKDKTQGKIEHVFSDLDSPASFILVNYIFLRGIWELPFSPENTREEDFYVNETSTVKVPMMVQSGSIGYFRDSVFPCQLIQMDYVGNGTAFFILPDQGQMDTVIAALSRDTIDRWGKLMTPRQVNLYIPKFSISDTYDLKDMLEDLNIKDLLTNQSDFSGNTKDVPLTLTMVHKAMLQLDEGNVLPNSTNGAPLHLRSEPLDIKFNKPFILLLFDKFTWSSLMMSQVVNPA | – | – | expression_or_secretion, other: % of untreated (Western blot of medium): decreases |
| rat CBG: N230D (protein) parent chain: MSLALYTCLLWLCTSGLWTAQASTNESSNSHRGLAPTNVDFAFNLYQRLVALNPDKNTLISPVSISMALAMVSLGSAQTQSLQSLGFNLTETSEAEIHQSFQYLNYLLKQSDTGLEMNMGNAMFLLQKLKLKDSFLADVKQYYESEALAIDFEDWTKASQQINQHVKDKTQGKIEHVFSDLDSPASFILVNYIFLRGIWELPFSPENTREEDFYVNETSTVKVPMMVQSGSIGYFRDSVFPCQLIQMDYVGNGTAFFILPDQGQMDTVIAALSRDTIDRWGKLMTPRQVNLYIPKFSISDTYDLKDMLEDLNIKDLLTNQSDFSGNTKDVPLTLTMVHKAMLQLDEGNVLPNSTNGAPLHLRSEPLDIKFNKPFILLLFDKFTWSSLMMSQVVNPA | – | – | expression_or_secretion [1]: no change |
| human CBG (corticosteroid-binding globulin): tunicamycin (human CBG) (protein) parent chain: MPLLLYTCLLWLPTSGLWTVQAMDPNAAYVNMSNHHRGLASANVDFAFSLYKHLVALSPKKNIFISPVSISMALAMLSLGTCGHTRAQLLQGLGFNLTERSETEIHQGFQHLHQLFAKSDTSLEMTMGNALFLDGSLELLESFSADIKHYYESEVLAMNFQDWATASRQINSYVKNKTQGKIVDLFSGLDSPAILVLVNYIFFKGTWTQPFDLASTREENFYVDETTVVKVPMMLQSSTISYLHDSELPCQLVQMNYVGNGTVFFILPDKGKMNTVIAALSRDTINRWSAGLTSSQVDLYIPKVTISGVYDLGDVLEEMGIADLFTNQANFSRITQDAQLKSSKVVHKAVLQLNEEGVDTAGSTGVTLNLTSKPIILRFNQPFIIMIFDHFTWSSLFLARVMNPV | decreases | – | – |
| human CBG (corticosteroid-binding globulin): tunicamycin (CBG N238) (protein) parent chain: MPLLLYTCLLWLPTSGLWTVQAMDPNAAYVNMSNHHRGLASANVDFAFSLYKHLVALSPKKNIFISPVSISMALAMLSLGTCGHTRAQLLQGLGFNLTERSETEIHQGFQHLHQLFAKSDTSLEMTMGNALFLDGSLELLESFSADIKHYYESEVLAMNFQDWATASRQINSYVKNKTQGKIVDLFSGLDSPAILVLVNYIFFKGTWTQPFDLASTREENFYVDETTVVKVPMMLQSSTISYLHDSELPCQLVQMNYVGNGTVFFILPDKGKMNTVIAALSRDTINRWSAGLTSSQVDLYIPKVTISGVYDLGDVLEEMGIADLFTNQANFSRITQDAQLKSSKVVHKAVLQLNEEGVDTAGSTGVTLNLTSKPIILRFNQPFIIMIFDHFTWSSLFLARVMNPV | decreases | – | – |
| human CBG (corticosteroid-binding globulin): T349A (protein) parent chain: MPLLLYTCLLWLPTSGLWTVQAMDPNAAYVNMSNHHRGLASANVDFAFSLYKHLVALSPKKNIFISPVSISMALAMLSLGTCGHTRAQLLQGLGFNLTERSETEIHQGFQHLHQLFAKSDTSLEMTMGNALFLDGSLELLESFSADIKHYYESEVLAMNFQDWATASRQINSYVKNKTQGKIVDLFSGLDSPAILVLVNYIFFKGTWTQPFDLASTREENFYVDETTVVKVPMMLQSSTISYLHDSELPCQLVQMNYVGNGTVFFILPDKGKMNTVIAALSRDTINRWSAGLTSSQVDLYIPKVTISGVYDLGDVLEEMGIADLFTNQANFSRITQDAQLKSSKVVHKAVLQLNEEGVDTAGSTGVTLNLTSKPIILRFNQPFIIMIFDHFTWSSLFLARVMNPV | – | increases | – |
| human CBG (corticosteroid-binding globulin): N347Q (protein) parent chain: MPLLLYTCLLWLPTSGLWTVQAMDPNAAYVNMSNHHRGLASANVDFAFSLYKHLVALSPKKNIFISPVSISMALAMLSLGTCGHTRAQLLQGLGFNLTERSETEIHQGFQHLHQLFAKSDTSLEMTMGNALFLDGSLELLESFSADIKHYYESEVLAMNFQDWATASRQINSYVKNKTQGKIVDLFSGLDSPAILVLVNYIFFKGTWTQPFDLASTREENFYVDETTVVKVPMMLQSSTISYLHDSELPCQLVQMNYVGNGTVFFILPDKGKMNTVIAALSRDTINRWSAGLTSSQVDLYIPKVTISGVYDLGDVLEEMGIADLFTNQANFSRITQDAQLKSSKVVHKAVLQLNEEGVDTAGSTGVTLNLTSKPIILRFNQPFIIMIFDHFTWSSLFLARVMNPV | – | increases | – |
